No end group written: not given here.

The results in this text go back to US20060229272A1 (published 2006).

In this assay the target is T1, HGPRBMY11 polypeptide (human G-protein coupled receptor, SEQ ID NO:2) (human, UniProt Q9NS75 17-346).
T1 construct: 330 amino acids; also called GPCR74; GPCR 81
T1 sequence: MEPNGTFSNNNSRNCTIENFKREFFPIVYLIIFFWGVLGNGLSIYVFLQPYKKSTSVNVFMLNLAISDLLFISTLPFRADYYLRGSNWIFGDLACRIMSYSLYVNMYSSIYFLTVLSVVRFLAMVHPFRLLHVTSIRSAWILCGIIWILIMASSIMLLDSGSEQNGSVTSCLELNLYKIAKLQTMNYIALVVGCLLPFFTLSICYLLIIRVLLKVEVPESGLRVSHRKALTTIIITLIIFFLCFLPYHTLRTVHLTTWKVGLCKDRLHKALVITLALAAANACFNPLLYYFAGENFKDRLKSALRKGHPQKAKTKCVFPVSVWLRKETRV
As to the kind of experiment: phage display panning of M13KE peptide libraries on CHO-K1 cells transfected with HGPRBMY11, after preadsorption on integrin and parental cells; bound phage eluted and sequenced. The procedure:
On the day of panning, growth medium was discarded and cells were washed with 10 ml PBS by allowing the buffer to flow over the cells. The PBS was removed and 10 ml Tris-EDTA detaching buffer (Gibco Cat. # 13150-016; no trypsin) was added for 2 min. Plates were tapped and/or pipetted up and down to detach cells. This was done quickly to minimize the exposure of the cells to this reagent. Cells were pelleted by centrifugation at 3 K, and then washed with 20 ml PBS. Cells were resuspended cells in PBS with 2% milk blocking agent plus protease inhibitor (EDTA-free; Roche Cat. # 1 873 580). For each library, cell suspensions of ˜500 ul were used. Cells were blocked for 30-60 min with gentle rocking at room temperature. The integrin-coated wells were washed 3× in PBST, then blocked with 2% BSA in PBS for 30 min or more. To preadsorb against integrin, input phage was added to the integrin-coated wells, and incubated for 30 min or more.
At this stage, the blocked parental cells were divided into the required number of aliquots (500 ul aliquot/library). The phage supernatants were added from the integrin-preadsorption step. Preadsorption against the parental cells was carried out for 30 min or more with gentle rocking. […]
Standard procedures were used. […] Colonies were grown in liquid medium and analyzed by standard sequencing procedures.

B1: THGFGHRVWSVPLRS (SEQ ID NO:96) (peptide)
peptide: THGFGHRVWSVPLRS
notes: In the assay it stood fused to the phage coat protein; also called Peptide Modulator of HGPRBMY11
For the molecule B1, the binding result was “binds”.

B2: LFASSDWSSFPVLVF (SEQ ID NO:81) (peptide)
peptide: LFASSDWSSFPVLVF
modifications: also: displayed fused to phage coat protein, not free peptide
notes: In the assay it stood fused to the phage coat protein, not as a free peptide; The synthesis of free N-acetyl peptide amides is described only as a method; also called Peptide Modulator of HGPRBMY11
For the molecule B2, the binding result is “binds”.
